# Assay results as given in the nanobody polyreactivity screen of Harvey et al. (2022).
# Experiment: yeast display, Sf9 membrane polyspecificity reagent, FACS + sequencing; frameworks hold sequencing errors
# Procedure, shortened: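 In a synthetic yeast display library (Saccharomyces cerevisiae BJ5465), nanobody expression was induced with galactose for 36–48 hours. FACS gates were set low and high (top ~1%) using anti-HA fluorescence for expression and streptavidin fluorescence for binding of the Sf9 membrane reagent. Each polyreactivity label is drawn from the gate of origin.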
row,Sequence,polyreactivity (PSR sort gate)
1,QVQLVESGGGLVQAGGSLRLSCAASGSTFEYNAMGWYRQAPGKERELVASSTNYADSVKGRFTISRDNAKNTVYLQMNSLKPEDTAVYYCAREQGVNRNHDYWGQGTQGTVSS,low polyreactivity
2,QVQLVESGGGLVQAGGSLRLSCAASGSIFENNAMGWYRQAPGKERELVAAISSDDTTNYADSVKGRFTISRDNAKNTVYLQMNSLKPEDTAVYYCATDYDVYGYPYDYGYWGQGTQVTVSS,low polyreactivity
3,QVQLVESGGGLFQAGASLRLSCAASGFIFTDYAIGWDTQAPGKERELVAAISSGGRTYYADSVKGRFTISRDNAKNTVYLQMNSLKPEDTAVYYCARGGRAEGWGQGTQVTVSS,high polyreactivity
4,QVQLVESGGGLVQAGGSLRLSCAASGRTFYFYVMGWYRQAPGKERELVARISYSDGSTYYADSVKGRFTISRDNAKNTVYLQMNSLKPEDTAVYYCNAYDPYYGRRYDYWGQGTQVTVSS,low polyreactivity
5,QVQLVESGGGLVQAGGSLRLSCAASGSIFGGYALGWYRQAPGNERELVAAITSSGGRTYYADSVKGRFTISRDNAKNTVYLQMNSLKPEDTAVYYCAARYTRWRYIYKDYDYWGQGTQVTVSS,high polyreactivity
6,QVQLVESGGGLVQAVGSLRLSCAASGLIFWRNAMGWYRQAPGKERELVAAITYSGSRTYYADSVKGRFTISRDNAKNTVYLQMNSLKPEDTAVYYCNADYYWYPYEDDDWGQGTQVTVSS,low polyreactivity
7,QDQLVESGGGLVQAGGSHRLSCAASGRIFARNAMGWYRQAPGKERELVATIRVGGGSTYYADSVKGRFTISRDNAKNTVYLQLNSLKPEDTAVYDCAVRQLYSYPGDRRGYYWGQGTQVTVSS,low polyreactivity
8,QVQLVESGGGLVQAGGSLRLSCAASGRIFDIYAMGWYRQAAGKERELVAAIRLSSGTTYYADSVKGRFTISRDNAKNTVYLQMNSLKPEDTAVYYCGADFIRPPYDYWGQGTQVTVSS,high polyreactivity
9,QFQLLESGGGLVHAAGSLRLSSAASVSNFLSNAMGWYRQAPGKETELVAAITTSGTSTFYADSVKGRFTSSRDNAKNTVYLHINSLTPEDTEVYCAKDYLPYLHFVAPSTGDYDYWGQGTQVTVSS,low polyreactivity
10,QVQLVDSGGGLVQAGGSLRLSCGASGLIFKYNVMGWYRQAPGKERELVAAITWGGTRTYYADSVKGRFTISRDTAKNTVYLQMNSLKPEDTAVYYCAVRSARIERNYWGQGTQVTVSS,low polyreactivity
11,QVQLVESGGGLVQAGGSLRLSCAASGFIIVYYAMGWYRQAPGKERELVAAITSSGGSTYYADSVKGRFTISRDNAKNTVYLQMNSLKPEDTAVYYCNRVWYATDFVNTMGYWGQGTQGTVSS,low polyreactivity
12,QVQLVESGGGLVQAGGSLRLSCAASGFIYGANAMGWYRQAPGKERALVAAISWNGGRTYYADSVKGRFTISRDNAKKTVYLQMNSLKPEDTAVYYCNARSWYSFQPQDYWGQGTQVTVSW,high polyreactivity
13,QVQLVESGGGLVQAGGSLRLSCAASASIFDHYAMGCYRQAPGKARELVAAITWDGTSTYYADSVKGRFTISRDNAKNTVYLQMNSLKPEDTAVYYCADDFYPYSWEEVDYWGQGTQVTVSS,low polyreactivity
14,QVQLVDSGGGLVQAGGSLRLSCAASGSTFYEYAMGWYRQPPGKERELVAAITSGGSTYYADSVKGRFTISRDNAKNTVYLQMNSLKPEDTAVYYCAADPRIRRGDRSTHGYDYWGQGTQVTVSS,low polyreactivity
15,QVQLVESGGGLVQAGGSLRLSCAASGSTFRYNTMGWDRQAPGKERELVAAISGGGGSTYYADSVKGRFTISRDNAKNTVYLQMNSLKPEDTAVYYCAKRHWYAGYVSSYTTRYDYWGQGTQVTVSS,low polyreactivity
16,QVQLVESGGGLVQAGGSLRLSCAASGSTFPLYAMGWYRQAPGKERELVATITGSGGSTNYADSVKGRFTISRDNAKNTVYLQMNSLKPEDTAVYYCNARRRRLVSYYYWGQGTQVTVSS,high polyreactivity
17,QVQLLESGGGLVQAGGSLRLSCAASGFIFNHYAMGWYRQAPGKEREFVAAISWSGGSTYYADSVKGRFTISRDNAKNTVYLQMNSLKPEDTAVYYCAASYNGLWHGDYDYWGQGTQVTVSS,low polyreactivity
18,QVHLVESGGGLVQAGGSLRLTCAASGSTFGTYAMGWYRPAPGKERELVATIAIGGITYYADSVKGRFTISRDNAKYTVYLQMNSLKPEDTAVDYCAKDVTAPTSRSDPSGDDYWGQGTQVTVSS,low polyreactivity
19,QVQLVESGGGLVQAGGSLRLSCAASGRTFYSYAMGWYRPAPGKERELVAAINSGGDTYYADSVKGRFTISRDNAKNTVYLQMNSLKPEDTAVYYCAADYYWEMDSWGQGTQVTVSS,low polyreactivity
20,QVQLVESGGGLVQAGGSLRLSCAASGSILGQYTMGWYRQAPGKERELVAGISSGGSTNYADSVKGRFTISRDNAKNTVYLQMNSLKPEDTAVYYCNKDGAFHWVGSDPVYLFEYWGQGTQVTVSS,low polyreactivity
21,QVQLVESGGGLVQAGGSLRLSCAASGSTFIRYVMGWYRQAPGKERELVASITISVGSTYADSVKGRFTISRDNAKHTVYLQMNSLKPEDTAVYYCNARYVENTPYPYDYWGQGTQVTVSS,low polyreactivity
22,QVQLVESGGGLVQAGGSLRLSCAASGRIFPGYAMGWYRQAPGKQRELVAGISNDASTNYADSVKGRFTISRDNAKNTVYLQMNSLKPEDTAVFYCAAEISYLSVPRYDYWGQGTQVTVSS,low polyreactivity

row,Sequence,polyreactivity (PSR sort gate)
1,QVQLVESGGGLVQAGGSLRLSCAASGITFVFYTMGWYRQAPGKERELVAAIARSGASTYYADSVKGRFTLSRDNAKNTVYLQMNSLKPEDTALYYGAADRGYRFRMDYWGQGTQVTVSS,high polyreactivity
2,QVHLVESGGGLVQAGGSLRLSCAASGRIFGPYAMGWYRQAPGKERELVASISGGGSTNYADSVKGRFTISRDNAKNTVYLQMNSLKPEDTAVYYCAADVYYQYWGWWPYDYWGQGTQVTVSS,low polyreactivity
3,QVQLVESGGGLVQAGGSLRLSCAASGRILPLYAMGWYRQAPGKERELVADITGSDGSTYYADSVKGRFTISRDNAKNTVYLQMNSLKPEDTAVYYCATDAIGRTPSDPWDYYYWGQGTQVTVSS,low polyreactivity
4,QVQLEESGGGLVQAGGSLRLSCAASGSILLGYDMGWYRTAPGKERELVASIDTNGGSPYYADSVKGRFTISRDNAKNTVYLQSNSLKPEDTAVYYCNADPSFVGGTYDYWGQGTQVTVSS,low polyreactivity
5,QVQLVESGGGLVQAGGSLRLSCAASGRTFLYNAMGWYSQATWKERELVASITRRGGTTYYADSVKGRFTISRDNAKNTVYLQMNSLKPEDTAVYYCNAQPGISYYYYGHWYGYWGQGTQVTVSS,high polyreactivity
6,QVQLVESGGGLVQAGGSLRLSCAATGSIFYVNAMGWYRQAPGKERELVAVNADSVKGRFTISRDNAKNTVYLQMNSLKPEDTAVYYCAAGVNSTTRIYDYWGQGTQVTVSS,low polyreactivity
7,QVQLVESGGGLVQAGGSLRLSCAASGIIFRSYTMGWYRQAPGKERELVASITRSGGITYYADSVKGRFTISRDNAKNTVYLQMNSLKPEDTAVYYCAARHRYYYQYRSDYWGQGTQVTVSS,high polyreactivity
8,QVQLVDSVGGLVKAGCSLRLSCAASGSTLPVNAKGCYRQAPGKERELVAAINRDGSTIYADSVKRPFTISRDIAKNTVYLKMNRLKPEDTAVYYCAADGFGYPGKRYDFWGQGTQVTVSS,low polyreactivity
9,QVQLVESVGGLVQAGGSLRLSCAASGRTFWWYTMGWYRQAPGKERELVAVISSTGGRTYYADSVKGSFTISRDNAKNTVYLQMNSLKPEDTAVYYCAAEYVSAKWEYGYWGQGTQVTVSS,low polyreactivity
10,QVQLVESGGGLVQEGGSLRLSCAASGRIFKYNAMGWYRQAPGKERELVAAISSSGGSTYYADSVKGRFTISRDNAKNTVYLHMNSLKPEDTAVYYCAARYNSRVYRYDYWGQGTQVTVSS,high polyreactivity
11,QVQLQESGGGLVQAGGSLRLSCAASGNISVTGFMGWYRQAPVKERELVASIGIGGTTYYADSVKGRFSISRDNAKNTVYLQMNSLKPEDTAVYYCAARYLYYAYSYWGQGSQVTVSS,low polyreactivity
12,QVQLVESGGGLVQAGGSLRLSGAAWSIFYLNAMGWYRKAPGKERELVAAISSAGSTYYADSVKGRFTISRDNAKNTVYLQMNSLKPEDTAVYYCAAYWYDSPGVTEIWYDYWGQGTQVTVSS,low polyreactivity
13,QVQLVESGGGLVQAGGSLRLSCAASGFIFVRYAMGWYRQAPGKERELVAAITKGGGRTYYADSVKGRFTISRDNAKNTVYLQMNSLKPEDTAVYYCATAGAHGRERDYWGQGTQVTVSS,high polyreactivity
14,QVQLQESGGGLVQAGGSLRPRCAAGGTIFVSVNRGWYRHAPGEEREFVASITQGATTNYADSLIGRFTISRDNAKNTVYLQMNCQKPEDTAVYYCAVHESGGITFTYWGQGTQVTVSS,high polyreactivity
15,QVQLVESGGGLVQAGGSLRLSCAPSGSTFYSYVMGWYRQATGKERELVAVISNDGSTNYADSVKGRFTISRDNAKNTVYLQMNSLKPEDTAVYYCAALKFVRAYRYYYWGQGTQVTVSS,low polyreactivity
16,QGQLVESGGGLVQAGGSLRLSCAPSGFIFKFYAMGWYRQAPGKESELVAAITSSGGSTNYADSVKGRFTISRDNAKNTVYLQMISLKPEDTAVSYCAAQFPGVYYYIYDYWGQGTQVTVSS,high polyreactivity
17,QVQLVESGGGLVQAGGSLRLSCAASGFTFYGYAMGWYRQAPGKERELVASISWSGGTTYYADSVKGRFTISRDNAKNTVYLQMNSLKPEDTAVYYCNAVRYRYGVFPYYYWGQGTQVTVSS,high polyreactivity
18,QVQLVESGGGLVQAGGSLRLSCAASGSIYYGYAMGWYRQAPGKERELVAAISSSGGSTYYADSVKGRFTISRDNAKNTVYLQMNSLKPEDTAVYYCAATRRKAYLYPSDYWGQGTQVTVSS,high polyreactivity
19,QVQLVESGGGLVQAGGSLRLSCAASGSTFTNYAMGWYRQAPGKERELVAGISRSGGTTYYADSVKGRFTISRDNVKNTVYLQMNSLKPEDTAVYYCAAVGYFGGYRYDYWGQGTQVTVSS,high polyreactivity
20,HVQLVESGGGLVQAGGSLRLSCAASGSIYGGNTMGWYRQAPGKERELVAAISRSGGSTYYADSVKGRFTISRDNAKNTVYLQMNSLKREDTAVYYCKRKQAGHGQGYDYWGQGTQVTVSS,high polyreactivity
21,QVQLVESGGGLVQAGGSLRLSCAASGIIFDFYAMGGYRQAPGKEREFVAAINSGSGSTYYADSVKGRFTISRDNAKNTVYLQMNSLKPVDTAVYYCAADGLSATLTWYSYDYWGQGTQVTVSS,low polyreactivity
